From patent US20070248609A1

Biological target: T1, Activin A (endogenous, mouse, released after LPS) (mouse) (UniProt Q04998)
T1 sequence (looked up): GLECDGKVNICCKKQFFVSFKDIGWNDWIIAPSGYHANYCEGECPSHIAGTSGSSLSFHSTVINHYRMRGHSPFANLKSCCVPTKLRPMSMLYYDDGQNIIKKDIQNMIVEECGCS
Test: cell-based or functional assay

IL-6 peak concentration in mice given 1 µg rhfollistatin-288 before LPS, against LPS alone: 2 fold
IL-6 release in mice given 0.5 µg follistatin before LPS (LPS alone ≈20000 pg/ml): 30000 pg/mL
IL-6 release in mice given 0.5 µg follistatin before LPS, against LPS alone: 50%
IL-6 release in mice given 1 µg follistatin before LPS (LPS alone ≈20000 pg/ml): 50000 pg/mL
IL-6 release in mice given 1 µg follistatin before LPS, against LPS alone: 250%
IL-6 release in mice given 2 µg follistatin before LPS (LPS alone ≈20000 pg/ml): 20000 pg/mL
TNFα release in plasma of mice given 1 µg rhfollistatin-288 30 min before LPS (% suppression): 50
Substance: Recombinant human follistatin-288 (from UniProt P19883 30-317)
